Data as given in US20220041674A1 (published 2022).
Non-standard residues stand in square brackets, D forms with d. Nal = naphthylalanine

B1: FC131, c[yRRNaIG] (R2) (peptide)
peptide: cyclo([dY]RR[Nal]G)
notes: stands under the natLu column heads although it carries no chelator; also called cyclo(Gly-Nal-Arg-Arg-D-Tyr)

Experiments:
[1] = biological target: human chemokine receptor 4 (CXCR4) (human) (UniProt P61073); test: competitive radioligand binding on Jurkat cells, [125I]FC131 0.1 nM, 2 h RT
[2] = biological target: human chemokine receptor 4 (CXCR4) (human) (UniProt P61073); test: competitive radioligand binding on Jurkat cells (400.000 cells/sample), [125I]FC-131
[3] = biological target: human chemokine receptor 4 (CXCR4) (human) (UniProt P61073); test: cell-based or functional assay
[4] = biological target: T1, murine chemokine receptor 4 (CXCR4) (murine, UniProt P70658 1-359); test: competitive radioligand binding on Eµ-Myc1080 mouse B-cell lymphoma cells, [125I]CPCR4.3
T1 construct: whole, on cells; receptor present on whole cells; also called mCXCR4; mouse CXCR4
T1 sequence (P70658 whole entry): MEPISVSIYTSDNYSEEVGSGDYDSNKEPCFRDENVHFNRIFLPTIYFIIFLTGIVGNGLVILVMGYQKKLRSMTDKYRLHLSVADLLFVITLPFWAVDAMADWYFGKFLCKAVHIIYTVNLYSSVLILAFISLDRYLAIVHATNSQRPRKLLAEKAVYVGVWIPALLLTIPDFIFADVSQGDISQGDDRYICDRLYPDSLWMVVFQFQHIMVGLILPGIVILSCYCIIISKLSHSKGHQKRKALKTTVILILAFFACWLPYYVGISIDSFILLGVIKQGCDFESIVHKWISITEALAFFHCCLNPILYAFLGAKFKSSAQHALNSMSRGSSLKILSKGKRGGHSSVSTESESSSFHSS

Sequence of human chemokine receptor 4 (CXCR4) (human) (P61073 whole entry): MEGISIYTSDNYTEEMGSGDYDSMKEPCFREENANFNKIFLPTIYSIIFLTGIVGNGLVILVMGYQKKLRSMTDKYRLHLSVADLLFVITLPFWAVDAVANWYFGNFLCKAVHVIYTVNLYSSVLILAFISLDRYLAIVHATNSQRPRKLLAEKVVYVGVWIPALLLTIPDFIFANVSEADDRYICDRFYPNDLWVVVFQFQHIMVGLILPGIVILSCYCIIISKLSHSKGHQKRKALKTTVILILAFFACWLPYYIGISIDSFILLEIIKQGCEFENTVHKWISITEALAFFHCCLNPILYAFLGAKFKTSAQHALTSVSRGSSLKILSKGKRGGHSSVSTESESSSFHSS

Molecule | IC50 [1] [nM] | IC50 [2] [nM] | further results
cyclo[yorn′([natLu]DOTA-kG-(4-amino)benzoyl-)RNaIG ([natLu]P3b) (peptide) | 8 | 8 | –
cyclo[i-yorn′([natY]DOTA-dapG-(4-amino)benzoyl-)RNaIG ([natY]P2) (peptide) | – | 4.1 | –
cyclo[yorn′([natY]DOTA-kG-(4-amino)benzoyl-)RNaIG ([natY]P3b) (peptide) | – | 6.3 | –
cyclo[i-yorn′([natGa]DOTA-kG-(4-amino)benzoyl-)RNaIG ([natGa]P3) (peptide) | 2.4 | 2.4 | –
cyclo[yorn′([natGa]DOTA-ra-(4-amino)benzoyl-)RNaIG ([natGa]P5b) (peptide) | 0.4 | 0.4 | –
cyclo[yorn′([natLu]DOTA-rG-(4-amino)benzoyl-)RNaIG ([natLu]P4b) (peptide) | 5.4 | 5.4 | –
^natLu-pentixafor, natLu complex of cyclo(D-Tyr1-D-[NMe]Orn2(AMBS-DOTA)-Arg3-Nal4-Gly5) (peptide) | 41 | – | –
cyclo[i-yorn′([natLu]DOTA-ra-(4-amino)benzoyl-)RNaIG ([natLu]P5) (peptide) | – | – | specific internalized activity (hCXCR4+ Chem 1 cells, 37 °C, 1.0 nM peptide, 60 min) [3]: 36.7%
^natGa-pentixafor, natGa complex of cyclo(D-Tyr1-D-[NMe]Orn2(AMBS-DOTA)-Arg3-Nal4-Gly5) (peptide) | 24.8 | – | –
cyclo[i-yorn′(AMBF3(methyl(1H-1,2,3-triazol-4-yl)-kG-4-amino)benzoyl-)RNaIG] (F4) (peptide) | – | 3.8 | –
cyclo[yorn′([natY]DOTA-ra-(4-amino)benzoyl-)RNaIG ([natY]P5b) (peptide) | – | 0.3 | –
^natLu-pentixather, natLu complex of cyclo(D-3-iodo-Tyr1-D-[NMe]Orn2(AMBS-DOTA)-Arg3-Nal4-Gly5) (peptide) | – | – | specific internalized activity (hCXCR4+ Chem 1 cells, 37 °C, 1.0 nM peptide, 60 min) [3]: 3.8%
cyclo[i-yorn′([natY]DOTA-kG-(4-amino)benzoyl-)RNaIG ([natY]P3) (peptide) | – | 2.4 | –
cyclo[i-yorn′([natLu]DOTA-d-(4-amino)benzoyl-)RNaIG ([natLu]P1) (peptide) | 106 | 106 | –
cyclo[-yorn′(AMBF3(methyl(1H-1,2,3-triazol-4-yl)-rG-4-amino)benzoyl-)RNaIG] (F3b) (peptide) | – | 2.4 | –
cyclo[i-yorn′(AMBF3(methyl(1H-1,2,3-triazol-4-yl)-vG-4-amino)benzoyl-)RNaIG] (F2) (peptide) | – | 65.2 | –
cyclo[yorn′([natGa]DOTA-kG-(4-amino)benzoyl-)RNaIG ([natGa]P3b) (peptide) | 8.9 | 8.9 | –
cyclo[i-yorn′(AMBF3(methyl(1H-1,2,3-triazol-4-yl)4-amino)benzoyl-)RNaIG] (F1) (peptide) | – | 134 | –
cyclo[i-yorn′([natGa]DOTA-dapG-(4-amino)benzoyl-)RNaIG ([natGa]P2) (peptide) | 3.6 | 3.6 | –
cyclo[yorn′([natLu]DOTA-ra-(4-amino)benzoyl-)RNaIG ([natLu]P5b) (peptide) | – | – | specific internalized activity (hCXCR4+ Chem 1 cells, 37 °C, 1.0 nM peptide, 60 min) [3]: 21.2%
cyclo[yorn′([natY]DOTA-rG-(4-amino)benzoyl-)RNaIG ([natY]P4b) (peptide) | – | 8.7 | –
cyclo[yorn′([natGa]DOTA-rG-(4-amino)benzoyl-)RNaIG ([natGa]P4b) (peptide) | 9.7 | 9.7 | –
cyclo[i-yorn′([natLu]DOTA-kG-(4-amino)benzoyl-)RNaIG ([natLu]P3) (peptide) | 3.6 | 3.6 | –
cyclo[i-yorn′([natBi]DOTA-kG-(4-amino)benzoyl-)RNaIG ([natBi]P3) (peptide) | – | 38 | –
B1 | – | – | IC50 [4]: 119 nM
